Data as given in PMC3568928 (Journal of molecular biology, 2011).
Several values for one entry are separate records, joined by “and”; a condition that tells them apart may be missing. Equal values may be shown once.

T1: htt^NTQ15K2 (Phe→Trp replacement at position 17 (stands in the printed letters))
T1 peptide: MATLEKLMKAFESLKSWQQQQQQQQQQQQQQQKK

T2: htt^NTQ25K2 (Phe→Trp replacement at position 17 (stands in the printed letters))
T2 peptide: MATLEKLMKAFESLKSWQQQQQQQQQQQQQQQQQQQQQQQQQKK

B1: htt^NTQ37P10K2 (peptide)
peptide: MATLEKLMKAFESLKSWQQQQQQQQQQQQQQQQQQQQQQQQQQQQQQQQQQQQQPPPPPPPPPPKK
B2: htt^NTQ10K2 (peptide)
peptide: MATLEKLMKAFESLKSFQQQQQQQQQQKK

How the values were obtained:
[1] = biological target: B2; assay: seeded elongation, HPLC sedimentation assay
[2] = biological target: T1, htt^NTQ15K2; assay: seeded elongation, HPLC sedimentation assay
[3] = biological target: T2, htt^NTQ25K2; assay: seeded elongation, HPLC sedimentation assay
[4] = biological target: the molecule itself; assay: AUC

pseudo-first-order rate constant of seeded elongation [1] [h⁻¹]	pseudo-first-order rate constant of seeded elongation [2] [h⁻¹]	pseudo-first-order rate constant of seeded elongation [3] [h⁻¹]	Binder	stoichiometry N [4]
0.249	0.236	0.316	B1	–
–	–	–	B2	~4 and ~8 and ~12
